Measurements reported in patent publication US20240301052A1 (LANOVA MEDICINES DEVELOPMENT, published 2024).

T1: human SLC34A2 (human, UniProt O95436 1-690)
T1 construct: whole, on cells; also called human solute carrier 34 A2; NaPi2b
T1 sequence (looked up): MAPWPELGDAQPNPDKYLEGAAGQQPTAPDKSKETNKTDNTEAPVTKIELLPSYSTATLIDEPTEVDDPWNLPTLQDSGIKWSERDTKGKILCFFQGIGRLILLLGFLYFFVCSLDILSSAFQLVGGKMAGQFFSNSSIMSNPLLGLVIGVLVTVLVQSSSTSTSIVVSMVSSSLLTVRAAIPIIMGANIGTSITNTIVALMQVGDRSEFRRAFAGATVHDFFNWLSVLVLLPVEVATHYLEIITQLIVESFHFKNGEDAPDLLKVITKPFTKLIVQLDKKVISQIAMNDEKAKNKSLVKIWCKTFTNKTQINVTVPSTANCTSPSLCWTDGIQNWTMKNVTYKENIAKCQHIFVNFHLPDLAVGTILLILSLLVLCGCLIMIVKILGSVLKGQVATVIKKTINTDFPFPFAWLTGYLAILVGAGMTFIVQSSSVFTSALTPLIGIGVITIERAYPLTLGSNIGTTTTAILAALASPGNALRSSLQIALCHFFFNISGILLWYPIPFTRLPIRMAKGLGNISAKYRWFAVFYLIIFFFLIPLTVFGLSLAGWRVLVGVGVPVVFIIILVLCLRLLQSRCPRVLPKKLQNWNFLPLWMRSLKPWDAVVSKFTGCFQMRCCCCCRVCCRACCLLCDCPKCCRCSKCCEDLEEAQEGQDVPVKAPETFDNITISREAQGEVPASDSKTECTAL

B1: 63A11D5B4.p1.z7 hIgG1 (antibody, V domains shown)
VH: QVQLVQSGAEVKKPGASVKVSCKTSGYTFITYNMHWVRQAPGQGLEWIGAIYPGSGDTSYNQKFKGRVTMTADTSTSTVYMELSSLRSEDTAVYYCSISTIITTGAVDYWGQGTLVTVSS
VL: DIQMTQSPSSLSTSVGDRVTITCKASQDVGTAVAWYQQKPGQSPKLLIYWTSTRHTGVPDRFSGSGSGTDFTLIIRSLQPEDVATYFCQQYSRIPLTFGGGTKVEIK
notes: humanized hIgG1
B2: 63A11D5B4.p1.z13 hIgG1 (antibody, V domains shown)
VH: QVQLQQSGAEVVKPGASVKMSCKTSGYTFITYNMHWVKQAPGQGREWIGAIYPGSGDTSYNQKFKGRATLTADKSTSTAYMELSSLRSEDTAVYYCSISTIITTGAVDYWGQGTSVTVSS
VL: DIQMTQSPSSLSASVGDRVTITCKASQDVGTAVAWYQQKPGKVPKLLIYWTSTRHTGVPSRFSGSGSGTDFTLTISSLQPEDVATYYCQQYSRIPLTFGGGTKVEIK
notes: humanized hIgG1
B3: 63A11D5B4.p1.z16 hIgG1 (antibody, V domains shown)
VH: QVQLQQSGAEVVKPGASVKMSCKTSGYTFITYNMHWVKQAPGQGREWIGAIYPGSGDTSYNQKFKGRATLTADKSTSTAYMELSSLRSEDTAVYYCSISTIITTGAVDYWGQGTSVTVSS
VL: DIVMTQSPSSLSTSVGDRVTITCKASQDVGTAVAWYQQKPGQSPKLLIYWTSTRHTGVPDRFTGSGSGTDFTLIIRSLQPEDVATYFCQQYSRIPLTFGSGTKVEIK
notes: humanized hIgG1
B4: 63A11D5B4.p1.z14 hIgG1 (antibody, V domains shown)
VH: QVQLQQSGAEVVKPGASVKMSCKTSGYTFITYNMHWVKQAPGQGREWIGAIYPGSGDTSYNQKFKGRATLTADKSTSTAYMELSSLRSEDTAVYYCSISTIITTGAVDYWGQGTSVTVSS
VL: DIQMTQSPSSLSTSVGDRVTITCKASQDVGTAVAWYQQKPGKSPKLLIYWTSTRHTGVPSRFSGSGSGTDFTLIISSLQPEDVATYYCQQYSRIPLTFGGGTKVEIK
notes: humanized hIgG1
B5: 63A11D5B4.p1.z12 hIgG1 (antibody, V domains shown)
VH: QVQLVQSGAEVVKPGASVKMSCKTSGYTFITYNMHWVRQAPGQGLEWIGAIYPGSGDTSYNQKFKGRVTLTADKSTSTAYMELSSLRSEDTAVYYCSISTIITTGAVDYWGQGTLVTVSS
VL: DIVMTQSPSSLSTSVGDRVTITCKASQDVGTAVAWYQQKPGQSPKLLIYWTSTRHTGVPDRFTGSGSGTDFTLIIRSLQPEDVATYFCQQYSRIPLTFGSGTKVEIK
notes: humanized hIgG1
B6: 63A11D5B4.p1.z10 hIgG1 (antibody, V domains shown)
VH: QVQLVQSGAEVVKPGASVKMSCKTSGYTFITYNMHWVRQAPGQGLEWIGAIYPGSGDTSYNQKFKGRVTLTADKSTSTAYMELSSLRSEDTAVYYCSISTIITTGAVDYWGQGTLVTVSS
VL: DIQMTQSPSSLSTSVGDRVTITCKASQDVGTAVAWYQQKPGKSPKLLIYWTSTRHTGVPSRFSGSGSGTDFTLIISSLQPEDVATYYCQQYSRIPLTFGGGTKVEIK
notes: humanized hIgG1
B7: 63A11D5B4.p1.z11 hIgG1 (antibody, V domains shown)
VH: QVQLVQSGAEVVKPGASVKMSCKTSGYTFITYNMHWVRQAPGQGLEWIGAIYPGSGDTSYNQKFKGRVTLTADKSTSTAYMELSSLRSEDTAVYYCSISTIITTGAVDYWGQGTLVTVSS
VL: DIQMTQSPSSLSTSVGDRVTITCKASQDVGTAVAWYQQKPGQSPKLLIYWTSTRHTGVPDRFSGSGSGTDFTLIIRSLQPEDVATYFCQQYSRIPLTFGGGTKVEIK
notes: humanized hIgG1
B8: 63A11D5B4.p1.z8 hIgG1 (antibody, V domains shown)
VH: QVQLVQSGAEVKKPGASVKVSCKTSGYTFITYNMHWVRQAPGQGLEWIGAIYPGSGDTSYNQKFKGRVTMTADTSTSTVYMELSSLRSEDTAVYYCSISTIITTGAVDYWGQGTLVTVSS
VL: DIVMTQSPSSLSTSVGDRVTITCKASQDVGTAVAWYQQKPGQSPKLLIYWTSTRHTGVPDRFTGSGSGTDFTLIIRSLQPEDVATYFCQQYSRIPLTFGSGTKVEIK
notes: humanized hIgG1

Target: T1, human SLC34A2
Assay: FACS, OVCAR3 cells

For B1, which EC50 is on record?
The EC50 was 61.1 nM.

What about the “Top (MFI)” value of the same binder?
The value was 41000 MFI.

How did the EC50 turn out when B2 was run?
The EC50 was 16.4 nM.

And the “Top (MFI)” value?
Its value is 32600 MFI.

With B3 as the binder, how does the EC50 read?
The EC50 was 11.4 nM.

And the “Top (MFI)” value?
The value was 29500 MFI.

What does the source list for B4?
EC50: 16.1 nM; Top (MFI): 32600 MFI

How did the EC50 turn out when B5 was run?
The EC50 was 11.7 nM.

What about the “Top (MFI)” value of the same binder?
The value was 31700 MFI.

What does the source list for B6?
EC50: 12.3 nM; Top (MFI): 29800 MFI

Which results are given for B7?
EC50: 10.3 nM; Top (MFI): 27700 MFI

How did the EC50 turn out when B8 was run?
The EC50 was 14.2 nM.

And the “Top (MFI)” value?
Its value is 27900 MFI.
